{"source": "paper PMC9352680", "about": "“A comprehensive thermodynamic model for RNA binding by the Saccharomyces cerevisiae Pumilio protein PUF4”", "data": [{"biological_target": "T1, PUF4 RNA-binding domain (Saccharomyces cerevisiae, UniProt P25339 537-888)", "T1 sequence": "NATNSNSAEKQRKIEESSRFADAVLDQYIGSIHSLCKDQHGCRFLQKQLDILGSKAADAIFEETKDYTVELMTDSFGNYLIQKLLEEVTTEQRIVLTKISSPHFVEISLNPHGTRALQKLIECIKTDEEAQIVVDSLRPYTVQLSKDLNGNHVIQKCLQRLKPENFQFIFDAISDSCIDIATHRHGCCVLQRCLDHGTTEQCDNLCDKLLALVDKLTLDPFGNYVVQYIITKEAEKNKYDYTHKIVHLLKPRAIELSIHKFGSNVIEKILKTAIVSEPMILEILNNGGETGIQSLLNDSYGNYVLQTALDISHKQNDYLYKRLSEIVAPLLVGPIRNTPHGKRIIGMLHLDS", "test": "Mg; RNA-MaP; 20 mM Na-HEPES pH 7.4, 30 mM KOAc, 0.75 mM MgCl2, 0.1% Tween-20, 5% glycerol, 0.1 mg/mL BSA, 2 mM DTT; 25 C; 0.0125-409.6 nM protein", "conditions": "tags: N-His6-TEV cleaved; C-SNAP kept, Cy3B-labelled; label: tethered on chip by stalled RNA polymerase", "units": {"Kd": "nM"}, "values": [{"binder": "UCUCUUUGUACGUAAUUCUCUU (ssRNA)", "note": "[Ic_S1_P5E.1_K5.1_C5.1_H5.1_A5.1_[T5C]_[T6G]_[A7T]_F5.1_[T8A]_[T9A]_[A10T]_T5.1]", "Kd": 126}, {"binder": "UCUCUUUGUAUAUAAAUCUCUU (ssRNA)", "note": "[Ic_S1_P5E.1_K5.1_C5.1_H5.1_A5.1_[T6A]_[A7T]_F5.1_[T8A]_[T9A]_T5.1]", "Kd": 8.13}, {"binder": "UCUCUUUGUAUUUCGUUCUCUU (ssRNA)", "note": "[Ic_S1_P5E.1_K5.1_C5.1_H5.1_A5.1_[A7T]_F5.1_[T8C]_[T9G]_[A10T]_T5.1]", "Kd": 370}, {"binder": "UCUCUUUGUAUGGCAUUCUCUU (ssRNA)", "note": "[Ic_S1_P5E.1_K5.1_C5.1_H5.1_A5.1_[T6G]_[A7G]_F5.1_[T8C]_[T9A]_[A10T]_T5.1]", "Kd": 1040}, {"binder": "UCUCUUUGUAACAGCCUCUCUU (ssRNA)", "note": "[Ic_S1_P5E.1_K5.1_C5.1_H5.1_A5.1_[T5A]_[T6C]_F5.1_[T8G]_[T9C]_[A10C]_T5.1]", "Kd": 1140}, {"binder": "UCUCUUUGUAGUAUAUUCUCUU (ssRNA)", "note": "[Ic_S1_P5E.1_K5.1_C5.1_H5.1_A5.1_[T5G]_F5.1_[T9A]_[A10T]_T5.1]", "Kd": 8.21}, {"binder": "UCUCUUUGUAACGGUCUCUCUU (ssRNA)", "note": "[Ic_S1_P5E.1_K5.1_C5.1_H5.1_A5.1_[T5A]_[T6C]_[A7G]_F5.1_[T8G]_[A10C]_T5.1]", "Kd": "> 2300"}, {"binder": "UCUCUUGGUCUAUAUCUCUU (ssRNA)", "note": "[Ib_S1_P3E.1_K3.1_C3.1_H3.1_[T1G]_[A4C]_A3.1_F3.1_T3.1]", "Kd": "> 2300"}, {"binder": "UCUCUUUGUACGUCAUUCUCUU (ssRNA)", "note": "[Ic_S1_P5E.1_K5.1_C5.1_H5.1_A5.1_[T5C]_[T6G]_[A7T]_F5.1_[T8C]_[T9A]_[A10T]_T5.1]", "Kd": 96.5}, {"binder": "UCUCUUUGUAAACUAAUCUCUU (ssRNA)", "note": "[Ic_S1_P5E.1_K5.1_C5.1_H5.1_A5.1_[T5A]_[T6A]_[A7C]_F5.1_[T9A]_T5.1]", "Kd": 3.01}, {"binder": "UCUCUUUGUACCAUACUCUCUU (ssRNA)", "note": "[Ic_S1_P5E.1_K5.1_C5.1_H5.1_A5.1_[T5C]_[T6C]_F5.1_[T9A]_[A10C]_T5.1]", "Kd": 1.59}, {"binder": "UCUCUUUGUAAACGCCUCUCUU (ssRNA)", "note": "[Ic_S1_P5E.1_K5.1_C5.1_H5.1_A5.1_[T5A]_[T6A]_[A7C]_F5.1_[T8G]_[T9C]_[A10C]_T5.1]", "Kd": 1060}, {"binder": "UCUCUUUGUAGUUAUUUCUCUU (ssRNA)", "note": "[Ic_S1_P5E.1_K5.1_C5.1_H5.1_A5.1_[T5G]_[A7T]_F5.1_[T8A]_[A10T]_T5.1]", "Kd": 705}, {"binder": "UCUCUUGUUAUAUAUCUCUU (ssRNA)", "note": "[Ib_S1_P3E.1_K3.1_C3.1_H3.1_[T1G]_[G2T]_A3.1_F3.1_T3.1]", "Kd": 47}, {"binder": "UCUCUUUGUACUUCAUUCUCUU (ssRNA)", "note": "[Ic_S1_P5E.1_K5.1_C5.1_H5.1_A5.1_[T5C]_[A7T]_F5.1_[T8C]_[T9A]_[A10T]_T5.1]", "Kd": 75.9}, {"binder": "UCUCUUGGCAUAUAUCUCUU (ssRNA)", "note": "[Ib_S1_P3E.1_K3.1_C3.1_H3.1_[T1G]_[T3C]_A3.1_F3.1_T3.1]", "Kd": "> 2300"}, {"binder": "UCUCUUUGUAUGCAGUUCUCUU (ssRNA)", "note": "[Ic_S1_P5E.1_K5.1_C5.1_H5.1_A5.1_[T6G]_[A7C]_F5.1_[T8A]_[T9G]_[A10T]_T5.1]", "Kd": 1990}, {"binder": "UCUCUUUGUAAGUAUAUCUCUU (ssRNA)", "note": "[Ic_S1_P5E.1_K5.1_C5.1_H5.1_A5.1_[T5A]_[T6G]_[A7T]_F5.1_[T8A]_T5.1]", "Kd": 95}, {"binder": "UCUCUUUGUACACCCCUCUCUU (ssRNA)", "note": "[Ic_S1_P5E.1_K5.1_C5.1_H5.1_A5.1_[T5C]_[T6A]_[A7C]_F5.1_[T8C]_[T9C]_[A10C]_T5.1]", "Kd": 113}, {"binder": "UCUCUUUGUAUUGCCAUCUCUU (ssRNA)", "note": "[Ic_S1_P5E.1_K5.1_C5.1_H5.1_A5.1_[A7G]_F5.1_[T8C]_[T9C]_T5.1]", "Kd": 955}, {"binder": "UCUCUUUGUACAGCAUUCUCUU (ssRNA)", "note": "[Ic_S1_P5E.1_K5.1_C5.1_H5.1_A5.1_[T5C]_[T6A]_[A7G]_F5.1_[T8C]_[T9A]_[A10T]_T5.1]", "Kd": 23.4}, {"binder": "UCUCUUUGUAUACCACUCUCUU (ssRNA)", "note": "[Ic_S1_P5E.1_K5.1_C5.1_H5.1_A5.1_[T6A]_[A7C]_F5.1_[T8C]_[T9A]_[A10C]_T5.1]", "Kd": 20.7}, {"binder": "UCUCUUUGUAAAUCACUCUCUU (ssRNA)", "note": "[Ic_S1_P5E.1_K5.1_C5.1_H5.1_A5.1_[T5A]_[T6A]_[A7T]_F5.1_[T8C]_[T9A]_[A10C]_T5.1]", "Kd": 63.1}, {"binder": "UCUCUUUGUACAAUUCUCUCUU (ssRNA)", "note": "[Ic_S1_P5E.1_K5.1_C5.1_H5.1_A5.1_[T5C]_[T6A]_F5.1_[A10C]_T5.1]", "Kd": 12.1}, {"binder": "UCUCUUUGUAUGUCCAUCUCUU (ssRNA)", "note": "[Ic_S1_P5E.1_K5.1_C5.1_H5.1_A5.1_[T6G]_[A7T]_F5.1_[T8C]_[T9C]_T5.1]", "Kd": 363}, {"binder": "UCUCUUUGUACACCAUUCUCUU (ssRNA)", "note": "[Ic_S1_P5E.1_K5.1_C5.1_H5.1_A5.1_[T5C]_[T6A]_[A7C]_F5.1_[T8C]_[T9A]_[A10T]_T5.1]", "Kd": 16.1}, {"binder": "UCUCUUUGUAAUUGCCUCUCUU (ssRNA)", "note": "[Ic_S1_P5E.1_K5.1_C5.1_H5.1_A5.1_[T5A]_[A7T]_F5.1_[T8G]_[T9C]_[A10C]_T5.1]", "Kd": 645}, {"binder": "UCUCUUUGUAUACUACUCUCUU (ssRNA)", "note": "[Ic_S1_P5E.1_K5.1_C5.1_H5.1_A5.1_[T6A]_[A7C]_F5.1_[T9A]_[A10C]_T5.1]", "Kd": 2.89}, {"binder": "UCUCUUUGUAUACGGUUCUCUU (ssRNA)", "note": "[Ic_S1_P5E.1_K5.1_C5.1_H5.1_A5.1_[T6A]_[A7C]_F5.1_[T8G]_[T9G]_[A10T]_T5.1]", "Kd": 90.4}, {"binder": "UCUCUUUGUAGCAGCUUCUCUU (ssRNA)", "note": "[Ic_S1_P5E.1_K5.1_C5.1_H5.1_A5.1_[T5G]_[T6C]_F5.1_[T8G]_[T9C]_[A10T]_T5.1]", "Kd": "> 2300"}, {"binder": "UCUCUUUGUAUGGUAAUCUCUU (ssRNA)", "note": "[Ic_S1_P5E.1_K5.1_C5.1_H5.1_A5.1_[T6G]_[A7G]_F5.1_[T9A]_T5.1]", "Kd": 32.1}, {"binder": "UCUCUUUGUAUAAAUCUCUU (ssRNA)", "note": "[Ia_S1_P3E.1_K3.1_C3.1_H3.1_A3.1_F3.1_[T7A]_T3.1]", "Kd": 50.4}, {"binder": "UCUCUUUGUACUCCCAUCUCUU (ssRNA)", "note": "[Ic_S1_P5E.1_K5.1_C5.1_H5.1_A5.1_[T5C]_[A7C]_F5.1_[T8C]_[T9C]_T5.1]", "Kd": 1300}, {"binder": "UCUCUUUGUAAGUACGUCUCUU (ssRNA)", "note": "[Ic_S1_P5E.1_K5.1_C5.1_H5.1_A5.1_[T5A]_[T6G]_[A7T]_F5.1_[T8A]_[T9C]_[A10G]_T5.1]", "Kd": 2240}, {"binder": "UCUCUUAGCAUAUAUCUCUU (ssRNA)", "note": "[Ib_S1_P3E.1_K3.1_C3.1_H3.1_[T1A]_[T3C]_A3.1_F3.1_T3.1]", "Kd": "> 2300"}, {"binder": "UCUCUUUGUACCCUAGUCUCUU (ssRNA)", "note": "[Ic_S1_P5E.1_K5.1_C5.1_H5.1_A5.1_[T5C]_[T6C]_[A7C]_F5.1_[T9A]_[A10G]_T5.1]", "Kd": 4.32}, {"binder": "UCUCUUUGUAAGUUUGUCUCUU (ssRNA)", "note": "[Ic_S1_P5E.1_K5.1_C5.1_H5.1_A5.1_[T5A]_[T6G]_[A7T]_F5.1_[A10G]_T5.1]", "Kd": 697}, {"binder": "UCUCUUUGUAUAUCAUCUCUU (ssRNA)", "note": "[Ic_S1_P4E.1_K4.1_C4.1_H4.1_A4.1_F4.1_[T8C]_T4.1]", "Kd": 8.57}, {"binder": "UCUCUUUGUACGAACCUCUCUU (ssRNA)", "note": "[Ic_S1_P5E.1_K5.1_C5.1_H5.1_A5.1_[T5C]_[T6G]_F5.1_[T8A]_[T9C]_[A10C]_T5.1]", "Kd": 1700}, {"binder": "UCUCUUUGUAAGCUGCUCUCUU (ssRNA)", "note": "[Ic_S1_P5E.1_K5.1_C5.1_H5.1_A5.1_[T5A]_[T6G]_[A7C]_F5.1_[T9G]_[A10C]_T5.1]", "Kd": 604}, {"binder": "UCUCUUUGUAACCCAUUCUCUU (ssRNA)", "note": "[Ic_S1_P5E.1_K5.1_C5.1_H5.1_A5.1_[T5A]_[T6C]_[A7C]_F5.1_[T8C]_[T9A]_[A10T]_T5.1]", "Kd": 711}, {"binder": "UCUCUUUGUAAAACCGUCUCUU (ssRNA)", "note": "[Ic_S1_P5E.1_K5.1_C5.1_H5.1_A5.1_[T5A]_[T6A]_F5.1_[T8C]_[T9C]_[A10G]_T5.1]", "Kd": 1190}, {"binder": "UCUCUUUGUAAGUUGUUCUCUU (ssRNA)", "note": "[Ic_S1_P5E.1_K5.1_C5.1_H5.1_A5.1_[T5A]_[T6G]_[A7T]_F5.1_[T9G]_[A10T]_T5.1]", "Kd": 495}, {"binder": "UCUCUUUGUACCAGCUUCUCUU (ssRNA)", "note": "[Ic_S1_P5E.1_K5.1_C5.1_H5.1_A5.1_[T5C]_[T6C]_F5.1_[T8G]_[T9C]_[A10T]_T5.1]", "Kd": 747}, {"binder": "UCUCUUUGUAUCUAUCUCUCUU (ssRNA)", "note": "[Ic_S1_P5E.1_K5.1_C5.1_H5.1_A5.1_[T6C]_[A7T]_F5.1_[T8A]_[A10C]_T5.1]", "Kd": 41.5}, {"binder": "UCUCUUUGUAAUCCUUUCUCUU (ssRNA)", "note": "[Ic_S1_P5E.1_K5.1_C5.1_H5.1_A5.1_[T5A]_[A7C]_F5.1_[T8C]_[A10T]_T5.1]", "Kd": 697}, {"binder": "UCUCUUUGUAUUUUUCUCUU (ssRNA)", "note": "[Ib_S1_P3E.1_K3.1_C3.1_H3.1_A3.1_[A6T]_F3.1_[A8T]_T3.1]", "Kd": 26.1}, {"binder": "UCUCUUUGUAUUUGCGUCUCUU (ssRNA)", "note": "[Ic_S1_P5E.1_K5.1_C5.1_H5.1_A5.1_[A7T]_F5.1_[T8G]_[T9C]_[A10G]_T5.1]", "Kd": 659}, {"binder": "UCUCUUUGUAAUAUAUUCUCUU (ssRNA)", "note": "[Ic_S1_P5E.1_K5.1_C5.1_H5.1_A5.1_[T5A]_F5.1_[T9A]_[A10T]_T5.1]", "Kd": 2.21}, {"binder": "UCUCUUUGUAAUUUUCUCUCUU (ssRNA)", "note": "[Ic_S1_P5E.1_K5.1_C5.1_H5.1_A5.1_[T5A]_[A7T]_F5.1_[A10C]_T5.1]", "Kd": 29.8}]}]}
